From paper PMC10945758 (Proceedings of the National Academy of Sciences of the …, 2024) come the findings set out here.

One series concerns the target T1, mouse TIFA(1−150/C36S) (mouse, UniProt Q793I8 1-150, C36S).
T1 sequence (looked up): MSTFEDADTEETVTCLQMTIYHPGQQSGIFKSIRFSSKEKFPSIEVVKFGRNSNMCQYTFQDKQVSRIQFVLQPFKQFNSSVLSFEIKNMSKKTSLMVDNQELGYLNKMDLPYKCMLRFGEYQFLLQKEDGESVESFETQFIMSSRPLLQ
In words: crystal structure.

For another series, the target named is T2, mouse TIFA(1−150) (mouse, UniProt Q793I8 1-150).
T2 sequence (looked up): T1 sequence (looked up) with S36C
The series can be described thus: SEC. For orientation: In gel filtration, larger molecules generally elute earlier.

The series “SEC” concerns the molecule itself. In words: SEC.

Positions count from the first letter of the chain named.

B1: mouse TIFAB(1−139) (domain or fragment, UniProt Q8JZM6 1-139, looked up)
chain: MERPLTVLQVSLYHPTQGPVAFAHVPQQLQHDASRLLVGRGQNTHLQLQLPQLSRYHLSLEPYLEKGSSLLAFCLKVLTRKSCVWVNGLPLRYLEQVPLGTINRISFSGIQMLVRKEGGASLETFVCYFHLSPSPLIYR
With B1, the binding result in the series with mouse TIFA(1−150/C36S) is “binds”.

B2: mouse TIFAB, full length, coexpressed with TIFA (natural protein, UniProt Q8JZM6 1-147, looked up)
chain: MERPLTVLQVSLYHPTQGPVAFAHVPQQLQHDASRLLVGRGQNTHLQLQLPQLSRYHLSLEPYLEKGSSLLAFCLKVLTRKSCVWVNGLPLRYLEQVPLGTINRISFSGIQMLVRKEGGASLETFVCYFHLSPSPLIYRPKAQETDE
For the molecule B2, the binding result in the series with mouse TIFA(1−150) was “binds”.

B3: mouse TIFA dimer (natural protein, UniProt Q793I8 1-184, looked up)
chain: MSTFEDADTEETVTCLQMTIYHPGQQSGIFKSIRFCSKEKFPSIEVVKFGRNSNMCQYTFQDKQVSRIQFVLQPFKQFNSSVLSFEIKNMSKKTSLMVDNQELGYLNKMDLPYKCMLRFGEYQFLLQKEDGESVESFETQFIMSSRPLLQENNWPTQNPIPEDGMYSSYFTHRSSPSEMDENEL
As to B3, the “stoichiometry N” value in the series “SEC” was 2.

The term stoichiometry N denotes the number of molecules, sites or subunits per partner or assembly.
